# Measured values as given in the MegaScale stability set (Tsuboyama et al. 2023).
# B1: r11_951_TrROS_Hall (parent)
# chain: KKKYVIKVYFEDTGKEVEIEAESKEEALEAAKRLAEELGLKIKKVEIYP
# Variants of: B1
# Assay: folding stability dG (cDNA display proteolysis); higher = more stable
# Conditions: PBS, room temperature
row,Variant,folding stability dG [kcal/mol]
1,YKKYVIKVYFEDTGKEVEIEAESKEEALEAAKRLAEELGLKIKKVEIYP [K1Y],4.52
2,KAKYVIKVYFEDTGKEVEIEAESKEEALEAAKRLAEELGLKIKKVEIYP [K2A],4.43
3,KCKYVIKVYFEDTGKEVEIEAESKEEALEAAKRLAEELGLKIKKVEIYP [K2C],4.46
4,KDKYVIKVYFEDTGKEVEIEAESKEEALEAAKRLAEELGLKIKKVEIYP [K2D],3.85
5,KEKYVIKVYFEDTGKEVEIEAESKEEALEAAKRLAEELGLKIKKVEIYP [K2E],4.29
6,KFKYVIKVYFEDTGKEVEIEAESKEEALEAAKRLAEELGLKIKKVEIYP [K2F],4.57
7,KGKYVIKVYFEDTGKEVEIEAESKEEALEAAKRLAEELGLKIKKVEIYP [K2G],4.29
8,KHKYVIKVYFEDTGKEVEIEAESKEEALEAAKRLAEELGLKIKKVEIYP [K2H],4.51
9,KIKYVIKVYFEDTGKEVEIEAESKEEALEAAKRLAEELGLKIKKVEIYP [K2I],4.36
10,KLKYVIKVYFEDTGKEVEIEAESKEEALEAAKRLAEELGLKIKKVEIYP [K2L],4.61
11,KMKYVIKVYFEDTGKEVEIEAESKEEALEAAKRLAEELGLKIKKVEIYP [K2M],4.59
12,KNKYVIKVYFEDTGKEVEIEAESKEEALEAAKRLAEELGLKIKKVEIYP [K2N],4.24
13,KPKYVIKVYFEDTGKEVEIEAESKEEALEAAKRLAEELGLKIKKVEIYP [K2P],3.73
14,KQKYVIKVYFEDTGKEVEIEAESKEEALEAAKRLAEELGLKIKKVEIYP [K2Q],4.34
15,KRKYVIKVYFEDTGKEVEIEAESKEEALEAAKRLAEELGLKIKKVEIYP [K2R],4.48
16,KSKYVIKVYFEDTGKEVEIEAESKEEALEAAKRLAEELGLKIKKVEIYP [K2S],4.52
17,KTKYVIKVYFEDTGKEVEIEAESKEEALEAAKRLAEELGLKIKKVEIYP [K2T],4.46
18,KVKYVIKVYFEDTGKEVEIEAESKEEALEAAKRLAEELGLKIKKVEIYP [K2V],4.34
19,KWKYVIKVYFEDTGKEVEIEAESKEEALEAAKRLAEELGLKIKKVEIYP [K2W],4.66
20,KYKYVIKVYFEDTGKEVEIEAESKEEALEAAKRLAEELGLKIKKVEIYP [K2Y],4.42
21,KKAYVIKVYFEDTGKEVEIEAESKEEALEAAKRLAEELGLKIKKVEIYP [K3A],4.46
22,KKCYVIKVYFEDTGKEVEIEAESKEEALEAAKRLAEELGLKIKKVEIYP [K3C],4.24

row,Variant,folding stability dG [kcal/mol]
1,KKDYVIKVYFEDTGKEVEIEAESKEEALEAAKRLAEELGLKIKKVEIYP [K3D],3.86
2,KKEYVIKVYFEDTGKEVEIEAESKEEALEAAKRLAEELGLKIKKVEIYP [K3E],3.9
3,KKFYVIKVYFEDTGKEVEIEAESKEEALEAAKRLAEELGLKIKKVEIYP [K3F],4.64
4,KKGYVIKVYFEDTGKEVEIEAESKEEALEAAKRLAEELGLKIKKVEIYP [K3G],4.03
5,KKHYVIKVYFEDTGKEVEIEAESKEEALEAAKRLAEELGLKIKKVEIYP [K3H],4.39
6,KKIYVIKVYFEDTGKEVEIEAESKEEALEAAKRLAEELGLKIKKVEIYP [K3I],4.27
7,KKLYVIKVYFEDTGKEVEIEAESKEEALEAAKRLAEELGLKIKKVEIYP [K3L],4.63
8,KKMYVIKVYFEDTGKEVEIEAESKEEALEAAKRLAEELGLKIKKVEIYP [K3M],4.59
9,KKNYVIKVYFEDTGKEVEIEAESKEEALEAAKRLAEELGLKIKKVEIYP [K3N],4.11
10,KKPYVIKVYFEDTGKEVEIEAESKEEALEAAKRLAEELGLKIKKVEIYP [K3P],4.49
11,KKQYVIKVYFEDTGKEVEIEAESKEEALEAAKRLAEELGLKIKKVEIYP [K3Q],4.28
12,KKRYVIKVYFEDTGKEVEIEAESKEEALEAAKRLAEELGLKIKKVEIYP [K3R],4.26
13,KKSYVIKVYFEDTGKEVEIEAESKEEALEAAKRLAEELGLKIKKVEIYP [K3S],4.52
14,KKTYVIKVYFEDTGKEVEIEAESKEEALEAAKRLAEELGLKIKKVEIYP [K3T],4.4
15,KKVYVIKVYFEDTGKEVEIEAESKEEALEAAKRLAEELGLKIKKVEIYP [K3V],4.24
16,KKWYVIKVYFEDTGKEVEIEAESKEEALEAAKRLAEELGLKIKKVEIYP [K3W],4.83
17,KKYYVIKVYFEDTGKEVEIEAESKEEALEAAKRLAEELGLKIKKVEIYP [K3Y],4.54
18,KKKAVIKVYFEDTGKEVEIEAESKEEALEAAKRLAEELGLKIKKVEIYP [Y4A],3.08
19,KKKCVIKVYFEDTGKEVEIEAESKEEALEAAKRLAEELGLKIKKVEIYP [Y4C],3.85
20,KKKDVIKVYFEDTGKEVEIEAESKEEALEAAKRLAEELGLKIKKVEIYP [Y4D],2.33
21,KKKEVIKVYFEDTGKEVEIEAESKEEALEAAKRLAEELGLKIKKVEIYP [Y4E],2.73
22,KKKFVIKVYFEDTGKEVEIEAESKEEALEAAKRLAEELGLKIKKVEIYP [Y4F],4.2

row,Variant,folding stability dG [kcal/mol]
1,KKKGVIKVYFEDTGKEVEIEAESKEEALEAAKRLAEELGLKIKKVEIYP [Y4G],2.47
2,KKKHVIKVYFEDTGKEVEIEAESKEEALEAAKRLAEELGLKIKKVEIYP [Y4H],3.58
3,KKKIVIKVYFEDTGKEVEIEAESKEEALEAAKRLAEELGLKIKKVEIYP [Y4I],4.29
4,KKKKVIKVYFEDTGKEVEIEAESKEEALEAAKRLAEELGLKIKKVEIYP [Y4K],2.9
5,KKKLVIKVYFEDTGKEVEIEAESKEEALEAAKRLAEELGLKIKKVEIYP [Y4L],3.93
6,KKKMVIKVYFEDTGKEVEIEAESKEEALEAAKRLAEELGLKIKKVEIYP [Y4M],3.98
7,KKKNVIKVYFEDTGKEVEIEAESKEEALEAAKRLAEELGLKIKKVEIYP [Y4N],2.92
8,KKKPVIKVYFEDTGKEVEIEAESKEEALEAAKRLAEELGLKIKKVEIYP [Y4P],2.44
9,KKKQVIKVYFEDTGKEVEIEAESKEEALEAAKRLAEELGLKIKKVEIYP [Y4Q],3.55
10,KKKRVIKVYFEDTGKEVEIEAESKEEALEAAKRLAEELGLKIKKVEIYP [Y4R],2.98
11,KKKSVIKVYFEDTGKEVEIEAESKEEALEAAKRLAEELGLKIKKVEIYP [Y4S],3.36
12,KKKTVIKVYFEDTGKEVEIEAESKEEALEAAKRLAEELGLKIKKVEIYP [Y4T],3.74
13,KKKVVIKVYFEDTGKEVEIEAESKEEALEAAKRLAEELGLKIKKVEIYP [Y4V],4.58
14,KKKWVIKVYFEDTGKEVEIEAESKEEALEAAKRLAEELGLKIKKVEIYP [Y4W],4.31
15,KKKYAIKVYFEDTGKEVEIEAESKEEALEAAKRLAEELGLKIKKVEIYP [V5A],4.35
16,KKKYCIKVYFEDTGKEVEIEAESKEEALEAAKRLAEELGLKIKKVEIYP [V5C],3.83
17,KKKYDIKVYFEDTGKEVEIEAESKEEALEAAKRLAEELGLKIKKVEIYP [V5D],3
18,KKKYEIKVYFEDTGKEVEIEAESKEEALEAAKRLAEELGLKIKKVEIYP [V5E],3.42
19,KKKYFIKVYFEDTGKEVEIEAESKEEALEAAKRLAEELGLKIKKVEIYP [V5F],4.42
20,KKKYGIKVYFEDTGKEVEIEAESKEEALEAAKRLAEELGLKIKKVEIYP [V5G],3.95
21,KKKYHIKVYFEDTGKEVEIEAESKEEALEAAKRLAEELGLKIKKVEIYP [V5H],4.32
22,KKKYIIKVYFEDTGKEVEIEAESKEEALEAAKRLAEELGLKIKKVEIYP [V5I],4.29

row,Variant,folding stability dG [kcal/mol]
1,KKKYKIKVYFEDTGKEVEIEAESKEEALEAAKRLAEELGLKIKKVEIYP [V5K],4.63
2,KKKYLIKVYFEDTGKEVEIEAESKEEALEAAKRLAEELGLKIKKVEIYP [V5L],4.13
3,KKKYMIKVYFEDTGKEVEIEAESKEEALEAAKRLAEELGLKIKKVEIYP [V5M],4.31
4,KKKYNIKVYFEDTGKEVEIEAESKEEALEAAKRLAEELGLKIKKVEIYP [V5N],4.12
5,KKKYPIKVYFEDTGKEVEIEAESKEEALEAAKRLAEELGLKIKKVEIYP [V5P],2.38
6,KKKYQIKVYFEDTGKEVEIEAESKEEALEAAKRLAEELGLKIKKVEIYP [V5Q],4.27
7,KKKYRIKVYFEDTGKEVEIEAESKEEALEAAKRLAEELGLKIKKVEIYP [V5R],4.66
8,KKKYSIKVYFEDTGKEVEIEAESKEEALEAAKRLAEELGLKIKKVEIYP [V5S],4.3
9,KKKYTIKVYFEDTGKEVEIEAESKEEALEAAKRLAEELGLKIKKVEIYP [V5T],4.47
10,KKKYWIKVYFEDTGKEVEIEAESKEEALEAAKRLAEELGLKIKKVEIYP [V5W],4.62
11,KKKYYIKVYFEDTGKEVEIEAESKEEALEAAKRLAEELGLKIKKVEIYP [V5Y],4.37
12,KKKYVAKVYFEDTGKEVEIEAESKEEALEAAKRLAEELGLKIKKVEIYP [I6A],4.12
13,KKKYVCKVYFEDTGKEVEIEAESKEEALEAAKRLAEELGLKIKKVEIYP [I6C],3.63
14,KKKYVDKVYFEDTGKEVEIEAESKEEALEAAKRLAEELGLKIKKVEIYP [I6D],0.044
15,KKKYVEKVYFEDTGKEVEIEAESKEEALEAAKRLAEELGLKIKKVEIYP [I6E],1.26
16,KKKYVFKVYFEDTGKEVEIEAESKEEALEAAKRLAEELGLKIKKVEIYP [I6F],4.55
17,KKKYVGKVYFEDTGKEVEIEAESKEEALEAAKRLAEELGLKIKKVEIYP [I6G],3.82
18,KKKYVHKVYFEDTGKEVEIEAESKEEALEAAKRLAEELGLKIKKVEIYP [I6H],2.82
19,KKKYVKKVYFEDTGKEVEIEAESKEEALEAAKRLAEELGLKIKKVEIYP [I6K],0.69
20,KKKYVLKVYFEDTGKEVEIEAESKEEALEAAKRLAEELGLKIKKVEIYP [I6L],4.34
21,KKKYVMKVYFEDTGKEVEIEAESKEEALEAAKRLAEELGLKIKKVEIYP [I6M],4.46
22,KKKYVNKVYFEDTGKEVEIEAESKEEALEAAKRLAEELGLKIKKVEIYP [I6N],1.53

row,Variant,folding stability dG [kcal/mol]
1,KKKYVPKVYFEDTGKEVEIEAESKEEALEAAKRLAEELGLKIKKVEIYP [I6P],-0.197
2,KKKYVQKVYFEDTGKEVEIEAESKEEALEAAKRLAEELGLKIKKVEIYP [I6Q],1.59
3,KKKYVRKVYFEDTGKEVEIEAESKEEALEAAKRLAEELGLKIKKVEIYP [I6R],0.95
4,KKKYVSKVYFEDTGKEVEIEAESKEEALEAAKRLAEELGLKIKKVEIYP [I6S],3.42
5,KKKYVTKVYFEDTGKEVEIEAESKEEALEAAKRLAEELGLKIKKVEIYP [I6T],3.59
6,KKKYVVKVYFEDTGKEVEIEAESKEEALEAAKRLAEELGLKIKKVEIYP [I6V],4.06
7,KKKYVWKVYFEDTGKEVEIEAESKEEALEAAKRLAEELGLKIKKVEIYP [I6W],4.67
8,KKKYVYKVYFEDTGKEVEIEAESKEEALEAAKRLAEELGLKIKKVEIYP [I6Y],4.79
9,KKKYVIAVYFEDTGKEVEIEAESKEEALEAAKRLAEELGLKIKKVEIYP [K7A],3.95
10,KKKYVICVYFEDTGKEVEIEAESKEEALEAAKRLAEELGLKIKKVEIYP [K7C],3.91
11,KKKYVIDVYFEDTGKEVEIEAESKEEALEAAKRLAEELGLKIKKVEIYP [K7D],2.75
12,KKKYVIEVYFEDTGKEVEIEAESKEEALEAAKRLAEELGLKIKKVEIYP [K7E],3.12
13,KKKYVIFVYFEDTGKEVEIEAESKEEALEAAKRLAEELGLKIKKVEIYP [K7F],4.21
14,KKKYVIGVYFEDTGKEVEIEAESKEEALEAAKRLAEELGLKIKKVEIYP [K7G],3.32
15,KKKYVIHVYFEDTGKEVEIEAESKEEALEAAKRLAEELGLKIKKVEIYP [K7H],4.19
16,KKKYVIIVYFEDTGKEVEIEAESKEEALEAAKRLAEELGLKIKKVEIYP [K7I],4.11
17,KKKYVILVYFEDTGKEVEIEAESKEEALEAAKRLAEELGLKIKKVEIYP [K7L],4.09
18,KKKYVIMVYFEDTGKEVEIEAESKEEALEAAKRLAEELGLKIKKVEIYP [K7M],4.1
